The values below come from patent publication US20030077318A1.

Where only a bound is given, the exact number is not on record here.

Assay [1] has as its target T1, soluble H-2K^b (K^bsol), heterodimer of truncated K^b heavy chain and murine β-2 microglobulin, purified empty from Drosophila cells (murine), P01901.
T1 chain 1: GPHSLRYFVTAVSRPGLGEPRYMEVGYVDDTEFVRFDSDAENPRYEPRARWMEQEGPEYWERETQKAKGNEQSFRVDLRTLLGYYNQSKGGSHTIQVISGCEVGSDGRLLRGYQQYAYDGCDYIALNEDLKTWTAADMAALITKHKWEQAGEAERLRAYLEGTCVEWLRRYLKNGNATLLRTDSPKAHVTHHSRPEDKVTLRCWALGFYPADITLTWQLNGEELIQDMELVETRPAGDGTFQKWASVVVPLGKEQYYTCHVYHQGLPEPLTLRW
T1 chain 2: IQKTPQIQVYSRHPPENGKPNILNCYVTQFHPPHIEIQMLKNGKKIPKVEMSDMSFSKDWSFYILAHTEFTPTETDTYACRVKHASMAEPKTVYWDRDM
Description: competitive RIA against [^125I]VSV-8 on K^bsol.

The target in assay [2] is T1, soluble H-2K^b (K^bsol), heterodimer of …. In words: competitive RIA against [^125I]VSV-8 on K^bsol, P30 gel filtration, 23° C.

Usually Kd stands for the concentration at which binding is half-saturated. High values mean lower affinity, low ones higher affinity. On to EQLESIINFEKLTEWTSSNVMEER (modifications not checked) [OVA-24], for which the fold lower affinity than OVA-8 in assay [1] was > 10000 fold. In assay [2], this molecule yielded a Kd of 71 µM.
